Assay results from article PMC8134462, “Cross-reactive serum and memory B-cell responses to spike protein in SARS-CoV-2 and endemic coronavirus infection” (Nature Communications, 2021).

B1: mAb CC9.1 (antibody, V domains shown)
VH: EVQLVESGGGLVQPGRSLRLSCVAPGFTLGGYGMHWVRQAPGKGLEWVGLISYDGSVQKYGSSVKGRFTISKDNSKNTLYLEMNSLRADDTAVYFCVKGASLGDNWGQGTLVTVSS
VL: EIVMTQSPLSLPVTLGQPASISCRSSQSLVYSDGDTYMSWFHQRPGQSPRRLIYKVSNRDSGVPDRFSGSGSGTDFTLKISRVEAEDVGVYYCMQGTHWPYTFGPGTKVEIK
B2: Fab CC9.2 (Fab, V domains shown)
VH: EVQLVESGGGLVQPGRSLRLSCVAPGFTLGGYGMHWVRQAPGKGLEWVGLISYDGSVQKYGSSVKGRFTISKDNSKNTLYLEMNSLRADDTAVYFCVKGASLGDNWGQGTLVTVSS
VL: EIVMTQSPLSLPVTLGQPASISCRSSQSLVYSDGDTYMSWFHQRPGQSPRRLIYKVSNRDFGVPDRFSGSGSGTDFTLKISRVEAEDVGVYYCMQGTHWPYTFGPGTKVEIK
notes: also called CC9.2 Fab
B3: mAb CC9.2 (IgG) (antibody, V domains shown)
VH: EVQLVESGGGLVQPGRSLRLSCVAPGFTLGGYGMHWVRQAPGKGLEWVGLISYDGSVQKYGSSVKGRFTISKDNSKNTLYLEMNSLRADDTAVYFCVKGASLGDNWGQGTLVTVSS
VL: EIVMTQSPLSLPVTLGQPASISCRSSQSLVYSDGDTYMSWFHQRPGQSPRRLIYKVSNRDFGVPDRFSGSGSGTDFTLKISRVEAEDVGVYYCMQGTHWPYTFGPGTKVEIK
B4: second SARS-CoV-2/HCoV-HKU1 cross-reactive mAb from the CC40 donor (its name is not printed in the text) (antibody, V domains shown)
VH: EVQLVESGGGVVQPGRSLRLSCVASGFTFSNYGMHWVRQAPGKGLEWVAVMSYDGSVTYYGDSVRGRFTISRDNSKNTLYLQMSSLRTDDTGVYYCAKGQPLDDIWGLGTLVTVSS
VL: EIVMTQSPLSLPVSLGQSASISCRSSQSLVHTDGITYLSWFQQRPGQSPRRLLYKVSNRDSGVPDRFSGSGSGTDFTLKISRVEAEDVGVYYCLQGTYWPWTFGQGTKVEIK
notes: also called one of the two cross-reactive mAbs from the CC40 donor

Assays:
[1] = target: T1, SARS-CoV-2 RBD-SD1 (residue 320-591) (SARS-CoV-2, Wuhan-Hu-1 (MN908947), UniProt P0DTC2); assay: BLI; details: both partners purified
T1 construct: source: FreeStyle293F, transfected, purified (Ni-NTA, SEC)

[2] = target: T2, SARS-CoV-2 receptor-binding domain-RBD (residue 320-527) (SARS-CoV-2, Wuhan-Hu-1 (MN908947), UniProt P0DTC2); assay: BLI; details: both partners purified
T2 construct: source: FreeStyle293F, transfected, purified (Ni-NTA, SEC)

[3] = target: T3, SARS-CoV-2 RBD-SD1-2 (residue 320-681) (SARS-CoV-2, Wuhan-Hu-1 (MN908947), UniProt P0DTC2); assay: BLI; details: both partners purified
T3 construct: source: FreeStyle293F, transfected, purified (Ni-NTA, SEC)

[4] = target: T4, SARS-CoV-2 N-terminal domain-NTD (residue 1-290) (SARS-CoV-2, Wuhan-Hu-1 (MN908947), UniProt P0DTC2); assay: BLI; details: both partners purified
T4 construct: source: FreeStyle293F, transfected, purified (Ni-NTA, SEC)

[5] = target: T5, HCoV-NL63 spike protein, full-length, expressed on the HEK293T cell surface (HCoV-NL63 (YP_003767.1), UniProt Q6Q1S2); assay: flow cytometry on cells; details: one partner purified
T5 construct: source: HEK293T, transfected (phCMV3), on the cell surface

[6] = target: T6, HCoV-HKU1 spike protein, full-length, expressed on the HEK293T cell surface (HCoV-HKU1, isolate N1 (YP_173238.1), UniProt Q5MQD0); assay: flow cytometry on cells; details: one partner purified
T6 construct: also called HKU1-CoV S; source: HEK293T, transfected (phCMV3), on the cell surface

[7] = target: T7, HCoV-229E spike protein, full-length, expressed on the HEK293T cell surface (HCoV-229E (NP_073551.1), UniProt P15423); assay: flow cytometry on cells; details: one partner purified
T7 construct: source: HEK293T, transfected (phCMV3), on the cell surface

[8] = target: T8, HCoV-OC43 spike protein, full-length, expressed on the HEK293T cell surface (HCoV-OC43); assay: flow cytometry on cells; details: one partner purified
T8 construct: source: HEK293T, transfected (phCMV3), on the cell surface

[9] = target: T9, SARS-CoV-2 spike protein, full-length, expressed on the HEK293T cell surface (SARS-CoV-2, Wuhan-Hu-1 (MN908947), UniProt P0DTC2); assay: flow cytometry on cells; details: one partner purified
T9 construct: source: HEK293T, transfected (phCMV3), on the cell surface

[10] = target: T10, HCoV-HKU1 soluble S ectodomain protein (residue 1-1295), prefusion-stabilized, with T4 fibritin trimerization … (HCoV-HKU1, isolate N1 (YP_173238.1), UniProt Q5MQD0, A1071/L1072 replaced by proline residues); assay: BLI; details: both partners purified
T10 construct: also called HCoV-HKU1 S-protein; HKU1-CoV S protein; source: FreeStyle293F, transfected, purified (Ni-NTA or GNL column, SEC)

Binder	binding result [1]	binding result [2]	binding result [3]	binding result [4]	binding result [5]	binding result [6]	binding result [7]	binding result [8]	binding result [9]	binding result [10]
B1	no binding	no binding	no binding	no binding	no binding	binds	no binding	binds	binds	
B2										binds
B3	no binding	no binding	no binding	no binding	no binding	binds	no binding	binds	binds	binds
B4	no binding	no binding	no binding	no binding	no binding	binds	no binding	binds	binds	
